{"source": "patent US20090075921A1", "about": "“Bone/joint disease sensitivity gene and use thereof” (Riken, priority 2004, published 2009)", "key": {"TGF-β1 [1]": {"biological_target": "T1, TGF-β1 (Homo sapiens, UniProt P01137)", "T1 sequence (P01137 279-390 limits assumed, species assumed)": "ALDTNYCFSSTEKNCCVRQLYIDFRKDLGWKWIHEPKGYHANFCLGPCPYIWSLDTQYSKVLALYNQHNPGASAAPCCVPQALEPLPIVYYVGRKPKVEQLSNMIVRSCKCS", "test": "Binding assay of purified recombinant mouse asporin and TGF-β by microplate assay method", "conditions": "biotinylated mouse asporin, TGF-β1-coated plate, OD405", "description": "A binding assay was performed using the method described in Example 24 with a partial modification as described below. To a Maxisorp 96-well microplate of Nunc, a 1 μg/ml TGF-β1 solution prepared with 0.05M sodium carbonate buffer (pH 9.6) was dispensed at 100 μl/well, and the microplate was coated with TGF-β1 at 4° C. overnight. The TGF-β-coated wells were blocked in 200 μl/well of Block Ace at 37° C. for 3 hours. Next, mouse asporin and biotinylated mouse asporin, diluted with Block Ace, were added to obtain a total volume of 100 μl per well, and the microplate was incubated at 4° C. overnight. The wells were washed with […] of TBST three times, after which streptavidin-alkaline phosphatase (Novagen) diluted 1000 fold with TBST was added at […], and the microplate was incubated at room temperature for 1 hour. The wells were washed with 400 μl/well of TBST five times, and then colored using an alkaline phosphatase substrate kit (BIO-RAD), and the absorbance at 405 nm was measured using Ultramark Microplate Imaging System (BIO-RAD)."}, "TGF-β1 [2]": {"biological_target": "T1, TGF-β1", "test": "Binding assay of asporin and TGF-β by pull-down assay method", "conditions": "S-Protein agarose precipitate, Western blotting", "description": "With the pET29b-ASP13 and pET29b-ASP14 thus prepared as the templates, S-tagged human asporin D13 and D14 were prepared by performing a reaction in the presence of Transcend™ Biotin-Lysyl-tRNA using TNT Quick Coupled Transcription/Translation Systems (Promega). A reaction mixture comprising S-tagged human asporin D13 or D14 (10 μl) and TGF-β1 (0.1 μg) were mixed in buffer A (50 mM Tris (pH 7.5), 150 mM NaCl, 1% Triton X-100, complete protease inhibitor cocktail tablets (Roche)) at 4° C. for 1 hour, S-Protein agarose (Novagen, 12.5 μl) was added, and the mixture was further incubated at room temperature for 30 minutes. The precipitated resin was washed with buffer A five times, after which SDS-PAGE was performed under reducing conditions. S-tagged human asporin in the precipitate was detected by Western blotting using streptavidin-HRP (R&D Systems), and TGF-β1 was detected by Western blotting using biotinylated anti-TGF-β1 antibody (Genzyme). As a result of an examination of the binding of human asporin and TGF-β by the method described above, a band of TGF-β1 was detected in the precipitate comprising S-tagged human asporin D13 or D14 (FIG. 17).\nUsing the recombinant mouse asporin purified by the method described in Example 31, its capability of binding with TGF-β1 was examined by the method described in Example 22 (pull-down assay method); as a result, it was confirmed that TGF-β1 was detected in the precipitate of purified mouse asporin (FIG. 26)."}, "NHAC [3]": {"tested_on": "NHAC", "test": "MTT assay of TGF-β1-stimulated cell growth in NHAC", "assay_type": "cell-based, human", "conditions": "TGF-β1 40 ng/ml with asporin 5 or 20 μg/ml, 5 days", "description": "NHAC was inculated to a 12-well plate at 1×10^5 cells/well, and cultured in a DMEM/F12 containing 10% FBS supplemented with TGF-β1 (40 ng/ml) and asporin (5 or 20 μg/ml) for 5 days, after which the degree of cell growth was examined by the MTT assay method described below. Specifically, 3-(4,5-dimethyl-2-thiazolyl)-2,5-diphenyl-2H-tetrazolium bromide (MTT, Dojindo Laboratory) was dissolved in DMEM/F12 to obtain a concentration of 1 mg/ml, the solution was added to the cells after the medium was removed by suction, and the cells were cultured at 37° C. for 1 hour. Thereafter the medium containing MTT was discarded, and the cells were subjected to extraction treatment using a Lysis reagent (86% isopropanol, 40 mM hydrochloric acid, 1% SDS). This cell lysate was transferred to a 96-well plate, and the absorbance at 550 nm was measured using a microplate reader."}, "NHAC [4]": {"tested_on": "NHAC", "test": "Articular chondrocyte differentiation maintenance in redifferentiated NHAC", "assay_type": "cell-based, human", "conditions": "7 days, TGF-β1 40 ng/ml, asporin 20 μg/ml where added", "description": "NHAC was redifferentiated by alginate beads culture for 2 weeks using a chondrocyte differentiation medium (CDM) manufactured by Cambrex Company according to the protocol attached. These redifferentiated cells were inoculated to a Lab-Tek II chamber slide (Nunc), a DMEM/F12 containing 5% FBS, ITS (Sigma), and TGF-β1 (40 ng/ml) was added, and the cells were allowed to maintain the degree of differentiation thereof; the effects of addition of asporin (20 μg/ml) on the cell morphology and extracellular proteoglycan accumulation were examined."}, "[5]": {"tested_on": "Smad2 phosphorylation in NHAC", "test": "Smad2 phosphorylation by TGF-β1 in NHAC (Western blotting)", "assay_type": "cell-based, human", "conditions": "asporin 20 μg/ml, TGF-β1 40 ng/ml, 10 minutes", "description": "NHAC was inoculated to a 12-well plate, and cultured in a DMEM/F12 containing 10% FBS and penicillin/streptomycin; when the cells became nearly confluent, the medium was exchanged with the same medium containing 0.2% serum. 12 hours later, asporin (20 μg/ml) was added; still 12 hours later, TGF-β1 (40 ng/ml) was added; 10 minutes later, the cells were lysed with the M-PER reagent (PIERCE). SDA-PAGE was performed using this cell extract, and Western blotting was performed according to the protocol attached to an antibody product of Cell Signaling Company. As the primary antibodies for detection of phosphorylated Smad2 and Smad2 protein, Phospho-Smad2 antibody (Cell Signaling) and rabbit anti-Smad2 (Zymed Laboratories) were used, respectively. As the […], anti-rabbit IgG-HRP (Cell Signaling) was used."}, "ATDC5 cells": {"tested_on": "ATDC5 cells", "test": "Purified recombinant mouse asporin on TGF-β1-stimulated aggrecan and type II collagen gene expression in ATDC5", "assay_type": "cell-based", "conditions": "TGF-β1 10 ng/ml, 18 hours, corrected by GAPDH", "description": "ATDC5 cells were inoculated to a 12-well plate at […], and cultured in a medium 1-2 (a DMEM/F12 medium containing 5% FBS, ITS (Sigma), penicillin (100 U/ml) and streptomycin (100 μg/ml)) for 2 days. Purified mouse asporin diluted with a medium 1-2 containing 0.2% FBS was added to the cells, and the cells were further cultured for 12 hours, after which TGF-β1 (10 ng/ml) was added, and the cells were further cultured for 18 hours, after which total RNA extraction, purification, cDNA synthesis, and real-time PCR were performed in the same manner as Example 18. At this time, the expression levels of the aggrecan and type II collagen genes were corrected by the expression level of the […] (GAPDH) gene."}}, "data": [{"molecule": "purified mouse asporin: recombinant mouse asporin expressed in Escherichia coli, refolded from insoluble fraction and purified by gel filtration (protein, left off: small tags and cut ends) DMEDTDDDDNDDDDNSLFPTKEPVNPFFPFDLFPTCPFGCQCYSRVVHCSDLGLTSVPNNIPFDTRMVDLQNNKIKEIKENDFKGLTSLYALILNNNKLTKIHPKTFLTTKKLRRLYLSHNQLSEIPLNLPKSLAELRIHDNKVKKIQKDTFKGMNALHVLEMSANPLENNGIEPGAFEGVTVFHIRIAEAKLTSIPKGLPPTLLELHLDFNKISTVELEDLKRYRELQRLGLGNNRITDIENGTFANIPRVREIHLEHNKLKKIPSGLQELKYLQIIFLHYNSIAKVGVNDFCPTVPKMKKSLYSAISLFNNPMKYWEIQPATFRCVLGRMSVQLGNVGK", "values": [{"measurement": "binding to TGF-β1 (microplate)", "setting": "TGF-β1 [1]", "value": "bound to TGF-β1 concentration-dependently and specifically"}, {"measurement": "binding to TGF-β1 (pull-down)", "setting": "TGF-β1 [2]", "value": "bound to TGF-β1 in vitro"}, {"measurement": "cell growth of NHAC (MTT, absorbance at 550 nm)", "setting": "NHAC [3]", "value": "suppressed concentration-dependently"}, {"measurement": "Safranine-O stainability (extracellular proteoglycan)", "setting": "NHAC [4]", "value": "decreased"}, {"measurement": "cell morphology", "setting": "NHAC [4]", "value": "fibroblast-like morphology"}, {"measurement": "Smad2 phosphorylation by TGF-β1 stimulation", "setting": "[5]", "value": "suppressed the Smad2 phosphorylation by TGF-β1 stimulation"}, {"measurement": "suppression of the TGF-β1-stimulated expression of the aggrecan and type II collagen genes", "setting": "ATDC5 cells", "value": "observed depending on the amount of purified mouse asporin added"}]}]}
